{
  "source": "patent US20110301073",
  "about": "“Novel DNA-binding proteins and uses thereof” (Sangamo BioSciences, Inc., published 2011)",
  "binders": {"B1": {"name": "TALE13 target (dsDNA)", "DNA 1": "TATAAATACCTTCT", "DNA 2": "AGAAGGTATTTATA"}},
  "key": {"TALE13 N+137 C+95": {"biological_target": "TALE13 N+137 C+95 (Xanthomonas axonopodis)", "experiment": "DNA-binding ELISA; replicates", "details": "tags: N-terminal Met", "from_the_text": "(§1) When clones #3, 4 and 5 were subjected to the SELEX procedure, no consensus sequences were detected. Thus it appears that the TALE binding domains require N- and C-terminal cap sequences comprised in from clone #2 to yield a consensus sequence in this assay. Additional truncations were made and tested for activity using a DNA binding ELISA assay essentially as described in Bartsevich et al., Stem Cells. 2003; 21:632-7. The truncations are presented below in Table 7, which also includes the ELISA results. The starting N-terminus in these truncations is at amino acid 152, identical to the N-terminus in the #1, #2, and #3 truncations discussed above. In this fine-scale truncation series, the end points are as follows."}, "TALE13 +79 FokI": {"biological_target": "T1, TALE13 +79 FokI (Xanthomonas axonopodis (engineered))", "T1 chain": "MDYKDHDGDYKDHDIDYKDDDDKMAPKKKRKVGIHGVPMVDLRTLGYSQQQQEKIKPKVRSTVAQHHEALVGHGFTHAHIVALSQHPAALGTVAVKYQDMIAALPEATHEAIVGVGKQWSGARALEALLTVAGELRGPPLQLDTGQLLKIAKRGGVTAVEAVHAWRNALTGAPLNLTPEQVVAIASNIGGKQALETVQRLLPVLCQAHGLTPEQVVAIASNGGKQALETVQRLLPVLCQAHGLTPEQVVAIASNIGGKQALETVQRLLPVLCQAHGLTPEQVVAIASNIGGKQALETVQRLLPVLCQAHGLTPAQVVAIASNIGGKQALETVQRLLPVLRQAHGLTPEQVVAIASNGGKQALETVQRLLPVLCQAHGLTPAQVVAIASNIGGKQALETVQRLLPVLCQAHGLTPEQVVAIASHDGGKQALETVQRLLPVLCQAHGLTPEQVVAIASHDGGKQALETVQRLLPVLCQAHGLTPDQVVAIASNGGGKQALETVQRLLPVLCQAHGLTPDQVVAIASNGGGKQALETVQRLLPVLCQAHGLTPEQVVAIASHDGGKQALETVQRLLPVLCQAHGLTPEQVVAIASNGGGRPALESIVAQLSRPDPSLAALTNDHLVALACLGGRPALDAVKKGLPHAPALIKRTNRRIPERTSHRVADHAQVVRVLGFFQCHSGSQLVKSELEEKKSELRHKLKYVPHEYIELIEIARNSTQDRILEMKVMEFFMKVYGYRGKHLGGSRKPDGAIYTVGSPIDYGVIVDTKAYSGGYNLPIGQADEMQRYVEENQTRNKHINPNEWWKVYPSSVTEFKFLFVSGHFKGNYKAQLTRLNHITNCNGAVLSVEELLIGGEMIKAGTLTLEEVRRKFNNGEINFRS", "experiment": "cleavage_in_vitro; two inverted sites, 16 bp gap; NEB Buffer 2, 37 C", "details": "tags: FLAG, NLS, chain copies: 2", "experimental": "TALE domain fusions were also constructed using Fold cleavage half domains. For these examples, wild type FokI half cleavage domains were used so that for nuclease activity, a homodimer must be formed from two of the fusions. For these fusions, the TALE13 DNA binding domain was fused to each FokI half domain by cloning the TALE DNA binding domain into a plasmid adjacent to FokI-specifying sequence. In addition, various linkers were tested for use between the DNA binding domain and the nuclease domain. Linkers L2 and L8 were used which are as follows: L2=GS (SEQ ID NO:71) and L8=[…] (SEQ ID NO:72). The target sites were cloned into a TOPO2.1 target vector (Invitrogen) with varying gap spacings between each target binding site such that the two were separated from each other by 2 to 22 bp. PCR amplification of an approximately 1 kb region of the target vector was done to generate the target DNAs. The TALE DNA binding domains were also truncated as described previously, and are described using the same nomenclature as described above in Examples 2 and 6. The TALE domain nuclease fusion clones were expressed in the TNT Rabbit Reticulocyte Lysate system by adding 5 μL of water containing 250 nanograms of the nuclease fusion clone plasmid to 20 μL of lysate and incubating at 30° C. for 90 minutes.\nThe lysate was then used to cleave the target DNAs as follows: 2.5 μL of lysate were added to a 50 μL reaction containing 50 nanograms of PCR-amplified target DNA and a final Buffer 2 (New England Biolabs) concentration of 1×. The cleavage reaction was for one hour at 37° C., followed by a 20 minute heat inactivation stage at 65° C. The reaction was then centrifuged at high speed to separate the target DNA from the lysate, causing the lysate to condense into a pellet in the reaction well. The DNA-containing supernatant was pipetted off and run on an ethidium bromide-stained agarose gel (Invitrogen) to separate intact target DNA from cleaved target DNA. The agarose gel was then analyzed using AlphaEaseFC (Alpha Innotech) software to measure the amount of target DNA present in the large uncleaved DNA band and the two smaller DNA bands resulting from a single cleavage event of the target DNA. The percentage of cleaved DNA out of the total amount of target DNA loaded into the gel represents the percent cleavage in each reaction."}, "TALE13 N+100 C+115": {"biological_target": "TALE13 N+100 C+115 (Xanthomonas axonopodis)", "experiment": "DNA-binding ELISA; background level", "from_the_text": "as §1"}, "TALE13 N+111 C+52": {"biological_target": "TALE13 N+111 C+52 (Xanthomonas axonopodis)", "experiment": "DNA-binding ELISA; background level", "from_the_text": "as §1"}, "TALE13 N+91 C+52": {"biological_target": "TALE13 N+91 C+52 (Xanthomonas axonopodis)", "experiment": "DNA-binding ELISA; background level", "from_the_text": "as §1"}, "TALE13 N+100 C+52": {"biological_target": "TALE13 N+100 C+52 (Xanthomonas axonopodis)", "experiment": "DNA-binding ELISA; background level", "from_the_text": "as §1"}, "TALE13 N+91 C+115": {"biological_target": "TALE13 N+91 C+115 (Xanthomonas axonopodis)", "experiment": "DNA-binding ELISA; background level", "from_the_text": "as §1"}, "TALE13 N+121 C+52": {"biological_target": "TALE13 N+121 C+52 (Xanthomonas axonopodis)", "experiment": "DNA-binding ELISA; background level", "from_the_text": "as §1"}},
  "data": [
    {"binder": "B1", "values": [
      {"measurement": "binding result", "setting": "TALE13 N+137 C+95", "value": "binds"},
      {"measurement": "activity", "setting": "TALE13 +79 FokI", "value": 56, "unit": "% cleavage"},
      {"measurement": "binding result", "setting": "TALE13 N+100 C+115", "value": "no binding"},
      {"measurement": "binding result", "setting": "TALE13 N+111 C+52", "value": "no binding"},
      {"measurement": "binding result", "setting": "TALE13 N+91 C+52", "value": "no binding"},
      {"measurement": "binding result", "setting": "TALE13 N+100 C+52", "value": "no binding"},
      {"measurement": "binding result", "setting": "TALE13 N+91 C+115", "value": "no binding"},
      {"measurement": "binding result", "setting": "TALE13 N+121 C+52", "value": "no binding"}
    ]}
  ]
}
